Values of other authors in PMC8466385.

Target: Tyr411 (UniProt position 435, ALLVRYTKKVP)
Assay: kinetics
Conditions: not stated for the pKa values (Table 1 footnote c gives 22.0 °C for kinetic parameters from the same reference)

## Human serum albumin (HSA) (Homo sapiens)
HSA:NphODe (p-nitrophenyl decanoate) substrate complex
  pKa: 7.0
HSA:NphOHe (p-nitrophenyl hexanoate) substrate complex
  pKa: 7.6
substrate-free HSA
  pKa: 8.9
